Two molecules from article PMC4534038, “Plasmodium falciparum Hop (PfHop) Interacts with the Hsp70 Chaperone in a Nucleotide-Dependent Fashion and Exhibits Ligand Selectivity” (PLoS ONE, 2015) can be followed below.

In test [1] the target is T1, Plasmodium falciparum Hsp70-Hsp90 organising protein (PfHop) (Plasmodium falciparum), Q8ILC1.
T1 chain: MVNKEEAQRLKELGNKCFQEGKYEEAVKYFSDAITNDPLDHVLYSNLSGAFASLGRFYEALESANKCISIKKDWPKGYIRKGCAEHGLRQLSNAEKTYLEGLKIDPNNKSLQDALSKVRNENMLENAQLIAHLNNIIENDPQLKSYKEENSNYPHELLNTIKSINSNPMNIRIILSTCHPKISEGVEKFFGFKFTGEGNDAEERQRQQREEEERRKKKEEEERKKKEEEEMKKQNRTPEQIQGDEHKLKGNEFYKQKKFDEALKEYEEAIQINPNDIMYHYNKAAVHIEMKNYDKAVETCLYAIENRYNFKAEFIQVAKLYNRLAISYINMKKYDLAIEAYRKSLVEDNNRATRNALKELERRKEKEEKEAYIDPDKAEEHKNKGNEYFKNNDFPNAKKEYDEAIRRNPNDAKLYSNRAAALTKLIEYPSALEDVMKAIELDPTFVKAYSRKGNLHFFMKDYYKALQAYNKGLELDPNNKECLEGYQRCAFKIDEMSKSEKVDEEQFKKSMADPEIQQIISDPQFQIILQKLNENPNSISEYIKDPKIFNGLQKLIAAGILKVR
In words: SPR; ProteOn XPR36, GLC chip; PfHop immobilised by amine coupling, PfHop as analyte (125-2000 nM); self-association, step not told; 25 C; PBS-Tween with 20 mM EDTA, pH 7.4; with 5 mM ADP. To be noted: remark: other sources report otherwise. (In general: SPR reads the build-up and loss of mass on a sensor chip optically.)

Test [2] has as its target T1, Plasmodium falciparum Hsp70-Hsp90 …. As to the kind of experiment: SPR; ProteOn XPR36, GLC chip; PfHop immobilised by amine coupling, PfHop as analyte (125-2000 nM); self-association, step not told; 25 C; PBS-Tween with 20 mM EDTA, pH 7.4; no nucleotide. The following applies: remark: other sources report otherwise.
Test [3] has the same target. As to the kind of experiment: SPR; ProteOn XPR36, GLC chip; PfHop immobilised by amine coupling, PfHop as analyte (125-2000 nM); self-association, step not told; 25 C; PBS-Tween with 20 mM EDTA, pH 7.4; with 5 mM ATP. To be noted: remark: other sources report otherwise.
Test [4] addresses Plasmodium falciparum Hsp70 (PfHsp70-1), full length, recombinant, his-tagged (Plasmodium falciparum, UniProt Q8IB24 1-677). In words: far-Western, overlay or dot blot; PfHsp70-1 (25, 37.5, 50 μg/mL) resolved by SDS-PAGE, blotted, denatured and renatured with urea (8 M-0 M); overlaid with PfHop in protein-binding buffer (100 mM NaCl, 20 mM Tris pH 7.6, 0.5 mM EDTA, 10% glycerol, 0.1% Tween-20, 2% skim milk, 1 mM DTT) overnight at 4°C; no nucleotide, 5 μM ADP or 5 μM ATP; detected with α-PfHop. To be noted: both partners purified.

B1: Plasmodium falciparum Hsp70-Hsp90 organising protein (PfHop), Q8ILC1 1-564 (natural protein)
chain: T1 chain
A word on the Kd: it is the concentration at which binding is half-saturated. For orientation: koff means the rate constant with which the complex falls apart. The low end stands for slow dissociation, the high end for fast dissociation. One may read the kon as the rate constant with which the complex forms. B1: the Kd in test [1] came to 7.85 nM; in test [2] it was 1.57 nM; in test [3], 5.18 nM. Further, the koff was found to be 0.000464 s⁻¹ in test [1], 0.000359 s⁻¹ in test [2] and 0.000329 s⁻¹ in test [3]. The kon in test [1] stood at 59100 M⁻¹ s⁻¹; in test [2], 228000 M⁻¹ s⁻¹; in test [3], 63500 M⁻¹ s⁻¹.

B2: Plasmodium falciparum Hsp70-Hsp90 organising protein (PfHop), recombinant, his-tagged (natural protein, UniProt Q8ILC1 1-564, looked up)
chain: T1 chain
On to B2, for which, in test [4], the binding result is “binds”.
